From patent publication US9289468B2, “Fusion protein comprising circularly permuted form of trail/Apo2L, coding gene and use thereof” (Beijing Sunbio Biotech Co. Ltd., priority 2011, dated 2016)
Entries after “also recorded” stand apart in the source; their conditions may differ.

Assays:
[1] = test system: H460 cells; assay: Time-effect relationship in killing lung cancer cell line (phase contrast morphology); assay type: cell-based, human; settings: 50 ng/ml
Protocol: FIG. 1. Observation of the killing effect of NCPT-1.M1 on H460 cells under phase contrast microscope.
At 37° C., H460 cells (ATCC) were adherently cultured to logarithmic growth phase in RPMI1640 medium containing 10% FBS in cell culture flask in 5% CO2 incubator.

[2] = test system: human multiple myeloma cell RPMI 8226; assay: Morphological observation of induced apoptosis (MGG staining); assay type: cell-based; settings: 200 ng/ml, 3 h
Protocol: FIG. 3. The morphological change of the apoptosis of human multiple myeloma cell RPMI 8226 induced by NCPT-1.M1. The cells were incubated with NCPT-1.M1 (200 ng/ml) for 3 h and then prepared as smears before MGG staining.
The RPMI 8226 cells (ATCC) were cultured in cell culture flasks until logarithmic growth phase, collected by centrifugation, resuspended with complete medium (10% FBS-RPMI1640) at 1×10^6/well, added into 6-well cell culture plate (Costar). The NCPT-1.M1 was diluted with complete medium, added to a final concentration of 200 ng/ml, incubated at 37° C. in 5% CO2 incubator for 3 h. The cells were collected, prepared as smears, fixed with methanol before May-Grünwald-Giemsa (MGG, May-Grünwald stain, commercial available from Beijing ZhongYe HengYuan Chemicals, Giemsa stain, commercial available from Solarbio) staining.

[3] = test system: human lung cancer cell line NCI-H460; assay: TUNEL staining of apoptosis; assay type: cell-based; settings: 15 ng/ml, 4 h
Protocol: FIG. 4. TUNEL assay of apoptosis of human lung cancer cell line NCI-H460 induced by NCPT-1.M1. The NCI-H460 cells were incubated with NCPT-1.M1 (15 ng/ml) for 4 h and then prepared as smears before TUNEL staining. […] In control group, nucleus remains intact, and no characteristic brown stained chromatins are seen (A).
During the process of apoptosis, the genomic DNA can be broken into double-strand, low molecular weight DNA fragments and high molecular weight single-stranded DNA fragments with broken ends (gaps), and these DNA strand gaps can be identified using enzyme-labeled nucleotide 3′-terminal labeling method. In the case of catalytic action of terminal deoxynucleotidyl transferase (TdT), FITC-labeled nucleotide can be incoporated to the free 3′ end nucleotide with template-independent manner, and thereby making the gap of the DNA strand labeled (TUNEL method). The labeling FITC can be recognized by horseradish peroxidase (POD) conjuncated sheep-derived Fab fragment. Upon development with DAB (3,3-diaminobenzidine), the cells stained as brown, which were apoptotic cells, were examined under light microscopy. TUNEL technique is a common method to detect apoptosis. The apoptosis upon incubation of NCI-H460 cell with NCPT-1.M1 was examined using TUNEL technique. […]

[4] = test system: human MM RPMI8226 tumor cells; assay: Apoptosis-inducing activity in vivo, RPMI8226 xenograft; set-up: species or system Balb/c nu athymic nude mice
From the text: Athymic nude mice were subcutaneously inoculated with human MM RPMI8226 tumor cells and treated with NCPT-1.M1, then tumor tissue was resected and subjected to conventional HE staining (A, B) and TUNEL staining of apoptotic cells (C, D).
Balb/c nu athymic nude mice (Beijing Huafukang Biotechnology Co., Ltd.) were subcutaneously inoculated with human MM RPMI8226 tumor cells. When the tumor grew to the volume of 700-800 mm3, the mice were divided into a control group (n=3) and a CPT treatment group (n=3), and were intraperitoneally injected with control or NCPT-1.M1 at a dose of 15 mg/kg once a day for 3 consecutive days. On day 4, the tumor volumes were measured (method same as the above), all animals were sacrificed, the tumors were resected and fixed in 10% formaldehyde solution. The tumor tissues were embedded in paraffin, cut into sections, and HE stained following the conventional methods. The apoptotic assay of the paraffin-embedded tissue sections were carried out following instructions of TUNEL Apoptosis Detection Kit (ZK-8005, Beijing Zhongshan Golden Bridge Biotechnology Co., Ltd.). […] To the contrary, the nucleus of normal cells are light blue or blue (FIG. 7A). Upon TUNEL staining, the nuclei of apoptotic cells are stained as brown (FIG. 7D).

[5] = test system: human COLO 205 xenograft tumor; assay: Inhibitory activity on human colon cancer xenograft tumors; assay type: in vivo, Balb/c nu mice
Protocol: 4 to 5 weeks old Balb/c nu mice ♂ (Institute of Experimental Animals, Chinese Academy of Medical Sciences) were subcutaneously inoculated with COLO 205 human colon tumor tissue pieces. When the tumor grew to the volume of 120 mm3, the tumor-bearing mice were divided into 4 groups (n=7/group), which were intraperitoneally injected with normal saline (negative control group), NCPT-1.M1 5 mg/kg, NCPT-1.M1 15 mg/kg and wtTRAIL 15 mg/kg once a day for 10 consecutive days. […] During the experiment, the tumor length diameter (a) and wide diameter (b) were measured every two days with a vernier caliper, and tumor volume (TV) was calculated according to the following formula: TV=½×a×b^2; From the above, the relative tumor volume (RTV) was calculated according to following formula: RTV=Vt/V0. Wherein V0 is the tumor volume measured on the day of the administration, but before administration (i.e., d0), and Vt is the tumor volume measured every time. The relative tumor proliferation rate T/C (%) is used as an evaluation index. Evaluation criteria: T/C (%)>40% means no effect; T/C (%)≦40% and the statistical significance of P<0.05 means being effective.
T/C %=RTVT/RTVC*100%. (RTVT: RTV of the treatment group; […]: RTV of the negative control group).

[6] = 5 mg/kg i.p. once a day for 10 days
[7] = 15 mg/kg i.p. once a day for 10 days

B1: NCPT-1.M1: MG+His6+NCPT-1 fusion protein, SEQ ID NO: 5 (protein)
chain: MGHHHHHHTLSSPNSKNEKALGRKINSWESSRSGHSFLSNLHLRNGELVIHEKGFYYIYSQTYFRFQEEIKENTKNDKQMVQYIYKYTSYPDPILLMKSARNSCWSKDAEYGLYSIYQGGIFELKENDRIFVSVTNEHLIDMDHEASFFGAFLVGGGGGGRVAAHITGTRGRSNT
modifications: NCPT-1.M1 polypeptide sequence
incubation time for appearance of morphological apoptosis changes [1]: 1-2 h
incubation time resulting in apoptosis of maximum number of cells [1]: 6 h
morphological features of apoptosis (MGG staining) [2]: obvious features of apoptosis were observed
apoptosis by TUNEL staining [3]: a large number of NCI-H460 cells experience apoptosis; also recorded: Almost all of the tumor cells exhibit characteristic of apoptosis
average tumor volume after treatment ([4]; 15 mg/kg i.p. once a day for 3 consecutive days, day 4): 286 mm^3
apoptosis of tumor cells in tumor tissue (HE and TUNEL staining) ([4]; 15 mg/kg i.p. once a day for 3 days): can quickly result in apoptosis of a lot of MM tumor cells
average tumor volume before dosing ([4]; RPMI8226 xenograft, before dosing): 798 mm^3
relative tumor volume RTV [5, 6]: 1.39
tumor proliferation rate T/C(%) [5, 6]: 29.89%
Tumor volume TV beginning [5, 6]: 117 ± 20.4 mm^3
Tumor volume TV ending [5, 6]: 197 mm^3
relative tumor volume RTV [5, 7]: 0.12
Tumor volume TV beginning [5, 7]: 118 ± 21.0 mm^3
Tumor volume TV ending [5, 7]: 15 mm^3
evaluation of efficacy (T/C ≦40% and P<0.05 means being effective) ([5]; both dosage groups of NCPT-1.M1 (5, 15 mg/kg), wtTRAIL 15 mg/kg): effective
